Where a chain is given by its changes, count along the chain named. Where no end group is shown, it is not given here.
Experiments:
[1] = target: T1, binding of IRAP-His to GST-MD364N (UniProt P97629+Q9Y613); experiment: Binding inhibition test / screening of compounds that inhibit the binding of IRAP to human MD36
T1 construct: to construct plasmid pET21-IRAP (1–109); made in house; host or cells: E. coli (BL21 for GST-MD36N4)
T1 sequence (Q9Y613 951-1164): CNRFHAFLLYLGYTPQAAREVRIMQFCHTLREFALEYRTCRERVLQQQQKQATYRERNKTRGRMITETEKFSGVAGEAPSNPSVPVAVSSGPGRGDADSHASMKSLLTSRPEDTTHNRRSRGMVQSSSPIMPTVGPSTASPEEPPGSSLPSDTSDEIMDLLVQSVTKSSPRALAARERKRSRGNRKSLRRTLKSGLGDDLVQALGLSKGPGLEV
T1 sequence (P97629 1-109): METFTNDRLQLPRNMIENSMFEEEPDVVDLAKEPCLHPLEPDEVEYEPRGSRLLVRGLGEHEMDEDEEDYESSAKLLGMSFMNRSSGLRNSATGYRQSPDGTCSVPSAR
Source text: The C terminal part (partial peptide encoded by the partial base sequence of 2995–3674 from the 5′ end in SEQ ID NO:2) of SEQ ID NO:1 (full-length cDNA of MD36) was used as human MD36. This DNA fragment was inserted into pGEX expression vector (Amersham Pharmacia) to construct expression plasmid pGEX-MD36N4 capable of expressing the human MD36 partial protein in the form fused to GST (glutathione S-transferase) protein (GST-MD36N4 protein) under control of tac promoter. However, the protease recognition site in these junctions was removed by applying PCR. Using pGEX-MD36N4, E. coli BL21 was transformed and the transformants were cultured in LB medium in a conventional manner while inducing expression by IPTG. After culture, the cells collected were disrupted by sonication followed by centrifugation of the cell homogenate. As a result, most of the GST-MD36N4 protein were present in the insoluble fraction. […]
Protein-protein binding test was carried out by the procedure shown below. […] After the wells were again rinsed 3 times with TBS-T, the IRAP-His protein remained in the wells was quantitatively assayed using anti-Penta-His antibody (Qiagen, Inc.). […] IRAP-His (1.0 μg/ml) or anti-Penta-His antibody (diluted to 2000 fold) and both were added to the GST-MD364N-coated or uncoated wells, and after washing with TBS-T, the amount of His-Tag remained in the wells was quantified. […]

[2] = target: T2, profilin II (Homo sapiens, UniProt P35080); experiment: Yeast two-hybrid HIS3 growth test, MD36 and profilin family; type: cell-based; conditions: S. cerevisiae Y190; 40 mM 3-amino-1,2,4-triazole
T2 construct: expressed in transfected cells; host or cells: Saccharomyces cerevisiae Y190
T2 sequence (P35080 1-140 isoform P35080-2): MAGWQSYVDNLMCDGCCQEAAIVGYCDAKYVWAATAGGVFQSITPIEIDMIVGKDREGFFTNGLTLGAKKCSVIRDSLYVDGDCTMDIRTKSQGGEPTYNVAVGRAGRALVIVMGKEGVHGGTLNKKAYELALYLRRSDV
Source text: (§1) The protein-protein interaction between MD36 and the profilin family was detected by the yeast two-hybrid system. Based on pGBT9 (CLONTECH), expression plasmids were constructed to express the coding regions of profiling I (Evangelista et al., Science, 276, 118–122, 1997; Imamura et al., EMBO J., 16, 2745–2755, 1997; Tanaka, Biochem. Biophys. Res. Commun., 267, 479–481, 2000), profilin II (Schluter et al., Biohim. Biophys. Acta, 1359, 97–109, 1997), and profiling IIL in the form fused to yeast GAL4-DNA-binding domain protein under control of yeast ADH1 promoter. These plasmids were named pG-PFNI, pG-PFNII and pG-PFNIII, respectively (yeast selection marker was TRP1). On the other hand, expression plasmids that express the full-length sequence (SEQ ID NO:1) of MD36, which is IRAP-BP protein, or the coding region from this N-terminus to the sequence (SEQ ID NO:33) including the proline-rich domain in the form fused to yeast […] activated domain protein under control of yeast ADH1 promoter was constructed based on pACT2 (CLONTECH), and named pACT-MD36 and pACT-MD36NT, respectively (yeast selection marker was LEU2). pG-PFNI, pG-PFNII, pG-PFNIII or, pGBT9 for control was co-transfected to yeast Saccharomyces cerevisiae Y190 together with pACT-MD36 or pACT-MD36NT, and yeast strains bearing plasmids from the two were selected on SD medium free of tryptophan and leucine. S. cerevisiae Y190 is originally a histidine auxotrophic strain but when the introduced proteins on the plasmids show the interactions, reporter gene HIS3 is expressed and the strain becomes capable of growing on a histidine-free plate. The yeast strain acquired was spread on tryptophan, leucine and histidine-free SD medium supplemented with 40 mM 3-amino-1,2,4-triazole.

[3] = test system: profilin I; experiment: as above; type: cell-based; conditions: S. cerevisiae Y190; 40 mM 3-amino-1,2,4-triazole
Source text: as §1

[4] = target: T3, profilin IIL (Homo sapiens, UniProt P35080); experiment: as above; type: cell-based; conditions: S. cerevisiae Y190; 40 mM 3-amino-1,2,4-triazole
T3 construct: expressed in transfected cells; host or cells: Saccharomyces cerevisiae Y190
T3 sequence (P35080 1-140): T2 sequence (P35080 1-140 isoform P35080-2) with A109V, I112F, T123G, E130S, L131M, L133K, R137D, D139G, V140F
Description: Using as a template human skeletal muscle-derived cDNA and as an enzyme Pfu polymerase (STRATAGENE), the reaction was carried out at 95° C. for 30 seconds, at 65° C. for 45 seconds and at 72° C. for 60 seconds, for 35 cycles. As a result of PCR, the DNA fragment of 745 bp was found, in addition to the DNA fragment of 423 bp or profilin II, and named profilin IIL. The base sequence for cDNA of profilin IIL is shown by SEQ ID NO:29, and the amino acid sequence of profilin II is shown by SEQ ID NO:28.
The protein-protein interaction between MD36 and the profilin family was detected by the yeast two-hybrid system. Based on pGBT9 (CLONTECH), expression plasmids were constructed to express the coding regions of profiling I (Evangelista et al., Science, 276, 118–122, 1997; Imamura et al., EMBO J., 16, 2745–2755, 1997; Tanaka, Biochem. Biophys. Res. Commun., 267, 479–481, 2000), profilin II (Schluter et al., Biohim. Biophys. Acta, 1359, 97–109, 1997), and profiling IIL in the form fused to yeast GAL4-DNA-binding domain protein under control of yeast ADH1 promoter. These plasmids were named pG-PFNI, pG-PFNII and pG-PFNIII, respectively (yeast selection marker was TRP1). […]

## O=C(O)c1cc(O)c2c(c1)[C@@H]([C@H]1c3cc(C(=O)O)cc(O)c3C(=O)c3c(OC4OC(CO)C(O)C(O)C4O)cccc31)c1cccc(OC3OC(CO)C(O)C(O)C3O)c1C2=O (some centres unmarked) [Compound 1]
[1]; library compound in DMSO, final concentration 1 μM
  binding inhibition (reduced amount of His-Tag remained on the plate): exhibited binding inhibition

## IRAP (55–82): chemically synthesized biotinylated peptide, amino acids 55–82 from the N terminus of SEQ ID NO:11 (IRAP) (VRGLGEHEMDEDEEDYESSAKLLGMSFM; also: biotinylated; listed as Homo sapiens) [reference compound]
[1]; biotinylated IRAP (55–82) peptide added, several amounts (μg/well)
  inhibition of the binding of IRAP-His to GST-MD364N: inhibited

B1: MD36NT: MD36 from the N terminus to the sequence including the proline-rich domain (SEQ ID NO:33) (protein, listed as Homo sapiens)
chain: MAGGEDRGDGEPVSVVTVRVQYLEDTDPFACANFPEPRRAPTCSLDGALPLGAQIPAVHRLLGAPLKLEDCALQVSPSGYYLDTELSLEEQREMLEGFYEEISKGRKPTLILRTQLSVRVNAILEKLYSSSGPELRRSLFSLKQIFQEDKDLVPEFVHSEGLSCLIRVGAAADHNYQSYILRALGQLMLFVDGMLGVVAHSDTIQWLYTLCASLSRLVVKTALKLLLVFVEYSENNAPLFIRAVNSVASTTGAPPWANLVSILEEKNGADPELLVYTVTLINKTLAALPDQDSFYDVTDALEQQGMEALVQRHLGTAGTDVDLRTQLVLYENALKLEDGDIEEAPGAGGRRERRKPSSEEGKRSRRSLEGGGCPARAPEPGPTGPASPVGPTSSTGPALLTGPASSPVGPPSGLQASVNLFPTISVAPSADTSSERSIYKLHQTASVWAPESPPVPQSPPGQARLEARFLENVAAAETEKQVALAQGRAETLAGAMPNEAGGHPDARQLWDSPETAPAARTPQSPAPCVLLRAQRSLAPEPKEPLIPASPKAEPIWELPTRAPRLSIGDLDFSDLGEDEDQDMLNVESVEAGKDIPAPSPPLPLLSGVPPPPPLPPPPPIKGPFPPPPPLPLAAPLPHSVPDSSALPTKRKTVKLFWRELKLAGGH
[2]
  growth of yeast on tryptophan, leucine and histidine-free SD medium: did not grow
[3]
  growth of yeast on tryptophan, leucine and histidine-free SD medium: did not grow
[4]
  growth of yeast on tryptophan, leucine and histidine-free SD medium: Growth of the yeast was noted

Reference: patent US7064106B2, “Gene and use thereof” (Takeda Chemical Industries, Ltd., priority 1999, dated 2006)
